Laboratory results: patent publication US7144862B2, “Orally administered peptides to ameliorate atherosclerosis” (The Regents of the University of California, priority 2000, dated 2006)
“Also recorded” adds a separate entry of the source. Non-standard residues stand in square brackets, D forms with d. Residues, ends and D or L forms follow the SMILES beside them.

What was measured:
[1] = tested on: red blood cells of LDL receptor deficient mice; assay: In vitro red cell lysis after gavage of D peptides; type: in vivo, mouse; settings: 100 μg by gavage, blood 17 and 48 hrs later
Protocol: Red cells were separated by centrifugation, were diluted to 10% hematocrit with PBS and incubated at 37° C. with gentle mixing. Aliquots were removed at time points t=0, 2, 6 and 18 hrs, cell pellets spun down and the optical density due to the released hemoglobin determined.

[2] = tested on: Human aortic wall cocultures; assay: LDL plus peptide in vitro in human aortic wall cocultures, monocyte chemotactic activity (Example 2); type: cell-based; settings: control LDL 250 μg/ml plus varying amounts of peptide
Protocol: Human aortic wall cocultures were incubated with medium alone (LDL, NO CELLS or CELLS, NO LDL, see FIG. 9), control LDL from normal subjects at 250 μg/ml (LDL) and LDL plus control HDL from normal subjects at 350 μg/ml (+HDL). Other cocultures were incubated With the control LDL together with varying amounts (micrograms shown on the abscissa) of either D-2F, or L-2F (third panel from the left, 2F) or D-37-pA or L-37pA (last panel on the right, 37pA). The data represent mean±SD of values obtained from quadruplicate cocultures.

[3] = Antibody formation against D-2F (other studies); type: in vivo
[4] = tested on: human artery wall cell cocultures; assay: Lipoproteins from mice given peptide by gavage tested in human artery wall cell cocultures (monocyte chemotactic activity); settings: for resistance of circulating mouse LDL to oxidation (monocyte chemotactic activity): 100 μg by gavage, LDL receptor-deficient mice, blood 17 hrs later
Protocol: Groups of LDL receptor-deficient mice (n=3) were administered the D-peptides or the saline vehicle by gavage. […] Blood was collected from retroorbital sinus under mild anesthesia 17 hrs later. LDL was isolated from plasma by FPLC. Cocultures of artery wall cells were incubated with medium alone (NO ADDITION), control LDL from normal subjects (LDL), LDL plus control HDL from normal subjects (+HDL). […] The cocultures were incubated for 4 hrs at 37° C. in the presence of 10% LPDS. The supernatants were then discarded, the cocultures were washed and incubated with culture medium without serum or LPDS for an additional 4 hrs. This conditioned medium was collected and analyzed for monocyte chemotactic activity. The values are mean±SD of quadruplicate cocultures.
Blood was collect after 6 hrs, plasma HDL and LDL were isolated by gel filtration (FPLC) and examined in the cocultures. […] Human LDL at 200 μg protein/ml was added to human artery wall cell cocultures together with human HDL (hHDL) at 350 μg protein/ml or mouse HDL (mHDL) at 100 μg cholesterol/ml taken from mice that received saline (Saline Rx) or L-4F (L-4F Rx) or D-4F (D-4F Rx) and monocyte chemotactic activity was determined as described herein. […] On the right, mouse LDL (mLDL) was isolated from mice receiving saline (Saline Rx) or L-4F (L4F Rx) or D-4F (D-4F Rx) and was added at 100 μg cholesterol/ml to the artery wall cell cocultures without HDL and monocyte chemotactic activity determined. Values are mean±SD) for four wells in two independent experiments.
Either saline or 2F synthesized from D amino acids or from L amino acids was instilled in the stomachs of mice by gavage (instillation in the stomach by tube). After gavage the mice were bled and their LDL isolated and added to the human artery wall cell cocultures.
The animals were bled 1.5, 3 or 6 hours later and their HDL, LDL, and VLDL/IDL isolated.
Human aortic endothelial and smooth muscle cells were isolated and cultured as previously described (Id.). Cellular oxidation of LDL in the presence and absence of HDL was determined as described (Id.). Human blood monocytes were isolated after obtaining informed consent and monocyte chemotaxis was determined as described previously^5.

[5] = tested on: C57BL/6J mice fed an atherogenic diet; assay: Aortic lesion formation, daily intraperitoneal injection for 16 weeks, atherogenic diet; type: in vivo, mouse; settings: 5F 20 μg or MoAI 50 μg daily i.p.
Protocol: The livers were removed and weighed.
Histological evaluations were performed according to the method of Paigen et al. (Paigen et al. (1990) Arteriosclerosis 10: 316–323) with some modifications. Briefly, hearts were fixed for at least one week in the phosphate-buffered formaldehyde solution. After removing the lower ⅔ of the hearts, the remaining tissue was frozen in OCT medium (Tissue-Tek, Miles Inc., Elkhart, Ind.) and sectioned in a cryostat at −20° C. Alternate 20 μm sections were saved on slides, and observed for the beginning of the aortic root. Sections were then collected for an additional 600 μm, or until the aortic cross-section was rounded and the valve cusps were no longer evident. Slides were stained with Oil Red O, and counterstained with hematoxylin. Stained lesion cross-sectional areas were measured in consecutive slides 80 μm apart by image analysis (SigmaScan Pro, SPSS Scientific, Chicago, Ill.), and the average lesion area was determined for each aortic sinus over the 400 μm length (five slides) providing the greatest mean lesion area.

[6] = Plasma cholesterol lipoprotein profiles (CLiP); type: in vivo, mouse; settings: 16 weeks atherogenic diet, daily i.p.
Protocol: Plasma cholesterol lipoprotein profiles were measured using our recently-developed CLiP method (Garber et al. (2000) J. Lipid Res. 41:1020–1026). Briefly, 5 to 10 μl of plasma were analyzed using a single Superose 6 (Pharmacia, Piscataway N.J.) column. Immediately following the column, cholesterol reagent was introduced through a mixing tee, and the eluent:reagent mixture entered a post-column reaction coil. Cholesterol content of the eluent mixture was spectrophotometrically detected at 500 nm, and data points were collected into a computer. The resulting profiles were decomposed into component peaks and analyzed for relative area using PeakFit (SPSS Science, Chicago, Ill.); absolute cholesterol values for total cholesterol and each component peak were determined by comparison with a control sample of known values. In some cases fractions were collected to determine distribution of radioactivity. The CLiP method allowed analysis of individual mouse samples, avoiding the use of pooled samples.

[7] = Survival, toxicity, body and liver weights after 16 weeks of injection
Protocol: Mice were acquired at six weeks of age, and randomized into groups of 20, except that a negative control group of 10 received no treatments and was given standard rodent chow. At eight weeks of age, the treatment groups were placed on a modified Thomas-Hartroft atherogenic diet (#TD88051; Teklad, Madison, Wis.), and injections were begun. […] Animals were injected intraperitoneally daily for 16 weeks, including weekends and holidays.
At the end of the study (week 16), at the last bleeding, the heart and the liver were excised. […] The livers were removed and weighed.

[8] = Antibody detection by indirect ELISA after 16 weeks of daily injection; type: in vivo, mouse; settings: plasma at conclusion of 16-week injection period
Protocol: To determine whether daily injections of peptides elicited any immune response in mice, indirect ELISA titration (Engvall (1980) Meth. Enzymol. 70:419–439) was carried out with plasma taken from mice at the time of organ collection (following sixteen weeks of daily injection). Plates were coated with the injected peptides or MoAI (10 μg/ml). Plates were incubated overnight. After thorough washing with borate buffered saline (pH 8.2) containing 0.05% Tween 20, and blocking with buffer (0.1% gelatin and 0.1% BSA in borate buffer) for 1 h, 200 μl of the diluted mouse plasma (1:100 dilution) samples were serially diluted 1:1 with borate-buffered saline. Biotinylated goat antibody to mouse IgG (0.1 μg/ml) was then added to the wells and the plates were treated with SA-HRP (Streptavidin-horse radish peroxidase) for an hour and developed with ABTS and peroxide as substrate. The plates were incubated overnight at room temperature after every addition of antigen/antibody and washed thoroughly with borate buffered saline (pH 8.2) containing 0.05% Tween 20, and blocked with buffer (0.1% gelatin and 0.1% BSA in borate buffer) for 1 h before the next addition.

[9] = mouse, in vivo
Protocol: The 5F peptide, MoAI, and human apo A-I were labeled with ^125I by the method of Bilheimer et al. (1972) Biochim. Biophys. Acta 260: 212–221. Mice were placed on a modified Thomas-Hartroft atherogenic diet (#TD88051; Teklad, Madison, Wis.) for four weeks at which time daily intraperitoneal injections of peptide or protein dissolved in 200 μl phosphate-buffered saline (PBS) were begun. Animals injected with MoAI or human apo A-I received 50 μg per animal; those injected with 5F received 20 μg. Animals were not fasted for the kinetic studies and blood samples were taken under xylazine:ketamine anesthesia from the retro-orbital sinus at 15, 30, and 45 minutes, and 1, 1.5, 2, 3, 4, 6, 8, 12, and 24 hours following injection. Each animal provided three blood samples at different time points (all retro-orbital and alternating eyes), and at least three samples were collected (from different animals) at each time point. Samples were collected into heparinized capillary tubes, then placed in microcentrifuge tubes; the plasma was separated by centrifugation. Duplicate 10 μl aliquots of each sample were taken for radioactivity determination, using gamma counting (Cobra; Packard Instruments, Downers Grove, Ill.) for 10 minutes per sample. Total plasma volume was calculated as 4.2% body weight. Each sample was expressed as percent of injected CPM in total plasma. Free ^125I was determined by trichloroacetic acid (TCA) precipitation (1 ml of 10% TCA per 10 μl plasma sample). Fitting to the kinetic model was done using all data points, rather than averages at each time point (PKAnalyst, MicroMath Scientific Software, Salt Lake City, Utah).
Treatment groups were compared by two-tailed t-tests or one way analysis of variance (where the data were normally distributed), or by one way analysis of variance on ranks (SigmaStat; SPSS Science, Chicago, Ill.). Kinetics of peptide or protein turnover were analyzed by fitting to a first order one-compartment kinetic model assuming non-equal input and output rates (PKAnalyst; MicroMath Scientific Software, Salt Lake City, Utah).

[10] = after 16 weeks, atherogenic diet, daily i.p., mean ± SEM

CC(=O)N[C@H](CC(=O)O)C(=O)N[C@H](Cc1c[nH]c2ccccc12)C(=O)N[C@H](CC(C)C)C(=O)N[C@H](CCCCN)C(=O)N[C@H](C)C(=O)N[C@H](Cc1ccccc1)C(=O)N[C@H](Cc1ccc(O)cc1)C(=O)N[C@H](CC(=O)O)C(=O)N[C@H](CCCCN)C(=O)N[C@@H](C(=O)N[C@H](C)C(=O)N[C@H](CCC(=O)O)C(=O)N[C@H](CCCCN)C(=O)N[C@H](CC(C)C)C(=O)N[C@H](CCCCN)C(=O)N[C@H](CCC(=O)O)C(=O)N[C@H](C)C(=O)N[C@H](Cc1ccccc1)C(N)=O)C(C)C [Peptide D-2F, Ac-D-W-L-K-A-F-Y-D-K-V-A-E-K-L-K-E-A-F-NH2] (Ac-[dD][dW][dL][dK][dA][dF][dY][dD][dK][dV][dA][dE][dK][dL][dK][dE][dA][dF]-NH2)
red cell lysis (hemolysis) after gavage [1]: resistant to hemolysis
monocyte chemotactic activity induced by LDL treated with peptide in vitro [2]: significantly different from LDL; also recorded: equally able to block LDL oxidation and LDL-induced monocyte chemotactic activity
antibody formation against the peptide [3]: not seen evidence of antibody formation
resistance of circulating mouse LDL to oxidation (monocyte chemotactic activity) [4]: resistant to oxidation
monocyte chemotaxis induced by LDL from mice given 2F by gavage ([4]; D versus L form by gavage): reduced monocyte chemotaxis

CC(C)C[C@@H](NC(=O)[C@@H](Cc1c[nH]c2ccccc12)NC(=O)[C@H](N)CC(=O)O)C(=O)N[C@H](CCCCN)C(=O)N[C@H](C)C(=O)N[C@H](Cc1ccccc1)C(=O)N[C@H](Cc1ccc(O)cc1)C(=O)N[C@H](CC(=O)O)C(=O)N[C@H](CCCCN)C(=O)N[C@@H](C(=O)N[C@H](C)C(=O)N[C@H](CCC(=O)O)C(=O)N[C@H](CCCCN)C(=O)N[C@H](CC(C)C)C(=O)N[C@H](CCCCN)C(=O)N[C@H](CCC(=O)O)C(=O)N[C@H](C)C(=O)N[C@H](Cc1ccccc1)C(=O)N1CCC[C@@H]1C(=O)N[C@H](CC(=O)O)C(=O)N[C@H](Cc1c[nH]c2ccccc12)C(=O)N[C@H](CC(C)C)C(=O)N[C@H](CCCCN)C(=O)N[C@H](C)C(=O)N[C@H](Cc1ccccc1)C(=O)N[C@H](Cc1ccc(O)cc1)C(=O)N[C@H](CC(=O)O)C(=O)N[C@H](CCCCN)C(=O)N[C@@H](C(=O)N[C@H](C)C(=O)N[C@H](CCC(=O)O)C(=O)N[C@H](CCCCN)C(=O)N[C@H](CC(C)C)C(=O)N[C@H](CCCCN)C(=O)N[C@H](CCC(=O)O)C(=O)N[C@H](C)C(=O)N[C@H](Cc1ccccc1)C(=O)O)C(C)C)C(C)C [Peptide D-37pA] (H-[dD][dW][dL][dK][dA][dF][dY][dD][dK][dV][dA][dE][dK][dL][dK][dE][dA][dF][dP][dD][dW][dL][dK][dA][dF][dY][dD][dK][dV][dA][dE][dK][dL][dK][dE][dA][dF]-OH)
red cell lysis (hemolysis) after gavage [1]: resistant to hemolysis
monocyte chemotactic activity induced by LDL treated with peptide in vitro [2]: significantly different from LDL
resistance of circulating mouse LDL to oxidation (monocyte chemotactic activity) [4]: resistant to oxidation

B1: Mouse apo A-I: mouse apo A-I isolated from the plasma of C57BL/6J mice (protein, UniProt Q00623 25-264, looked up)
Apolipoprotein A-I: DEPQSQWDKVKDFANVYVDAVKDSGRDYVSQFESSSLGQQLNLNLLENWDTLGSTVSQLQERLGPLTRDFWDNLEKETDWVRQEMNKDLEEVKQKVQPYLDEFQKKWKEDVELYRQKVAPLGAELQESARQKLQELQGRLSPVAEEFRDRMRTHVDSLRTQLAPHSEQMRESLAQRLAELKSNPTLNEYHTRAKTHLKTLGEKARPALEDLRHSLMPMLETLKTQVQSVIDKASETLTAQ
mean lesion cross-sectional area compared with PBS-injected animals [5]: no difference in lesion area
HDL as percent of total cholesterol [6]: (9.34 ± 1.19%*)
IDL + LDL as percent of total cholesterol [6]: (42.44 ± 2.46%)
VLDL as percent of total cholesterol [6]: (48.23 ± 2.75%)
HDL cholesterol ([6]; mean ± SEM): 19.50 ± 3.07 mg/dL
IDL + LDL cholesterol ([6]; mean ± SEM): 87.86 ± 8.34 mg/dL
TC (total cholesterol) ([6]; mean ± SEM): 207.45 ± 16.94 mg/dL
VLDL cholesterol ([6]; mean ± SEM): 100.08 ± 9.73 mg/dL
toxicity ([7]; 16 weeks daily i.p. injection): No toxicity
Body Weight [7, 10]: 21.16 ± 0.34 g
Liver Weight [7, 10]: 1.72 ± 0.04 g
Liver: Body (percentage) [7, 10]: 8.15 ± 0.23%
mice died from unexplained causes ([7]; during the prolonged diet studies, groups of 20): Two
antibodies against the injected material [8]: No antibodies were detected
Max. % in plasma [9]: 13.5%
Time (h) to max. CPM ([9]; ip): 1.74 h
T½ ([9]; ip): 15.7 h
